B1: Kinesin-like protein KIF24 (Homo sapiens), Q5T7B8 (parent)
chain: MASWLYECLCEAELAQYYSHFTALGLQKIDELAKITMKDYSKLGVHDMNDRKRLFQLIKIIKIMQEEDKAVSIPERHLQTSSLRIKSQELRSGPRRQLNFDSPADNKDRNASNDGFEMCSLSDFSANEQKSTYLKVLEHMLPDDSQYHTKTGILNATAGDSYVQTEISTSLFSPNYLSAILGDCDIPIIQRISHVSGYNYGIPHSCIRQNTSEKQNPWTEMEKIRVCVRKRPLGMREVRRGEINIITVEDKETLLVHEKKEAVDLTQYILQHVFYFDEVFGEACTNQDVYMKTTHPLIQHIFNGGNATCFAYGQTGAGKTYTMIGTHENPGLYALAAKDIFRQLEVSQPRKHLFVWISFYEIYCGQLYDLLNRRKRLFAREDSKHMVQIVGLQELQVDSVELLLEVILKGSKERSTGATGVNADSSRSHAVIQIQIKDSAKRTFGRISFIDLAGSERAADARDSDRQTKMEGAEINQSLLALKECIRALDQEHTHTPFRQSKLTQVLKDSFIGNAKTCMIANISPSHVATEHTLNTLRYADRVKELKKGIKCCTSVTSRNRTSGNSSPKRIQSSPGALSEDKCSPKKVKLGFQQSLTVAAPGSTRGKVHPLTSHPPNIPFTSAPKVSGKRGGSRGSPSQEWVIHASPVKGTVRSGHVAKKKPEESAPLCSEKNRMGNKTVLGWESRASGPGEGLVRGKLSTKCKKVQTVQPVQKQLVSRVELSFGNAHHRAEYSQDSQRGTPARPASEAWTNIPPHQKEREEHLRFYHQQFQQPPLLQQKLKYQPLKRSLRQYRPPEGQLTNETPPLFHSYSENHDGAQVEELDDSDFSEDSFSHISSQRATKQRNTLENSEDSFFLHQTWGQGPEKQVAERQQSLFSSPRTGDKKDLTKSWVDSRDPINHRRAALDHSCSPSKGPVDWSRENSTSSGPSPRDSLAEKPYCSQVDFIYRQERGGGSSFDLRKDASQSEVSGENEGNLPSPEEDGFTISLSHVAVPGSPDQRDTVTTPLREVSADGPIQVTSTVKNGHAVPGEDPRGQLGTHAEYASGLMSPLTMSLLENPDNEGSPPSEQLVQDGATHSLVAESTGGPVVSHTVPSGDQEAALPVSSATRHLWLSSSPPDNKPGGDLPALSPSPIRQHPADKLPSREADLGEACQSRETVLFSHEHMGSEQYDADAEETGLDGSWGFPGKPFTTIHMGVPHSGPTLTPRTGSSDVADQLWAQERKHPTRLGWQEFGLSTDPIKLPCNSENVTWLKPRPISRCLARPSSPLVPSCSPKTAGTLRQPTLEQAQQVVIRAHQEQLDEMAELGFKEETLMSQLASNDFEDFVTQLDEIMVLKSKCIQSLRSQLQLYLTCHGPTAAPEGTVPS
partner: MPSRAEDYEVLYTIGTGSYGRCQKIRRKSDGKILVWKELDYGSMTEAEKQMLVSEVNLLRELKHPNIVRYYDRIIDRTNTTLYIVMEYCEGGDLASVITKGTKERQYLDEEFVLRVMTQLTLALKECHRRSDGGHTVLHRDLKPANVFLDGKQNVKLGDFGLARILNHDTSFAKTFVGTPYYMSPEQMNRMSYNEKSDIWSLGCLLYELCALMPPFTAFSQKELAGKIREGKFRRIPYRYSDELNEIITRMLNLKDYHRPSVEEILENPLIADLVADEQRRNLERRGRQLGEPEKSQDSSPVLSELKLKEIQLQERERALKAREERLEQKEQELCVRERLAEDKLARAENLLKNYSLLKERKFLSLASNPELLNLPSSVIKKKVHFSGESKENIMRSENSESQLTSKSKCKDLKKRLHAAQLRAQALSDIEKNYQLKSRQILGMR

The assay covers variants of B1. The conditions noted are these: with nek2_human NEK2, P51955.
In the case of T621A;S622A, the “effect of a mutation on the interaction” value is “decreasing interaction”.

(Values after IntAct's records for PubMed 26290419.)
